Source: the supplement of paper PMC10065799, “High-throughput profiling of sequence recognition by tyrosine kinases and SH2 domains using bacterial peptide display” (eLife, 2023)

Legend:
Hck = Hck (UniProt P08631); test: phosphorylation enrichment, bacterial display (enrichment ratio); higher = better substrate or ligand; peptides without Tyr show the background
AncSZ = test: as above
c-Abl (mouse) = test: as above
FGFR3 = FGFR3 (UniProt P22607); test: as above
Fer (mouse) = test: as above
Fyn = Fyn (UniProt P06241); test: as above
Sequence of Fyn (P06241 whole entry, looked up): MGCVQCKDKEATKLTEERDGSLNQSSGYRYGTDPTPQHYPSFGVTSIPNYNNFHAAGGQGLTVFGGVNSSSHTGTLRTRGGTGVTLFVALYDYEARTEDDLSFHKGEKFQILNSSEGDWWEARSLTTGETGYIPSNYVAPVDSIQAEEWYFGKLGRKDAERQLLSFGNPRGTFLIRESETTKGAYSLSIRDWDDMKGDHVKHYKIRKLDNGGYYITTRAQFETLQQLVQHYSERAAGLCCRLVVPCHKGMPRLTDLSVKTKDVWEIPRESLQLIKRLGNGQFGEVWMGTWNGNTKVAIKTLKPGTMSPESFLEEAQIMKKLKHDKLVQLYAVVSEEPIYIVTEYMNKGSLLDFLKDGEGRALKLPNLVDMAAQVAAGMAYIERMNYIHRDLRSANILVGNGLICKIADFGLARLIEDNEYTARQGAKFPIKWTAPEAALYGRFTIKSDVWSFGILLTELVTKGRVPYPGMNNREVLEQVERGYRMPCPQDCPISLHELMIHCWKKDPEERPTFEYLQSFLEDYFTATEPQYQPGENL

Jak2 = Jak2 (UniProt O60674); test: as above
MERTK = MERTK (UniProt Q12866); test: as above
Sequence of MERTK (Q12866 whole entry, looked up): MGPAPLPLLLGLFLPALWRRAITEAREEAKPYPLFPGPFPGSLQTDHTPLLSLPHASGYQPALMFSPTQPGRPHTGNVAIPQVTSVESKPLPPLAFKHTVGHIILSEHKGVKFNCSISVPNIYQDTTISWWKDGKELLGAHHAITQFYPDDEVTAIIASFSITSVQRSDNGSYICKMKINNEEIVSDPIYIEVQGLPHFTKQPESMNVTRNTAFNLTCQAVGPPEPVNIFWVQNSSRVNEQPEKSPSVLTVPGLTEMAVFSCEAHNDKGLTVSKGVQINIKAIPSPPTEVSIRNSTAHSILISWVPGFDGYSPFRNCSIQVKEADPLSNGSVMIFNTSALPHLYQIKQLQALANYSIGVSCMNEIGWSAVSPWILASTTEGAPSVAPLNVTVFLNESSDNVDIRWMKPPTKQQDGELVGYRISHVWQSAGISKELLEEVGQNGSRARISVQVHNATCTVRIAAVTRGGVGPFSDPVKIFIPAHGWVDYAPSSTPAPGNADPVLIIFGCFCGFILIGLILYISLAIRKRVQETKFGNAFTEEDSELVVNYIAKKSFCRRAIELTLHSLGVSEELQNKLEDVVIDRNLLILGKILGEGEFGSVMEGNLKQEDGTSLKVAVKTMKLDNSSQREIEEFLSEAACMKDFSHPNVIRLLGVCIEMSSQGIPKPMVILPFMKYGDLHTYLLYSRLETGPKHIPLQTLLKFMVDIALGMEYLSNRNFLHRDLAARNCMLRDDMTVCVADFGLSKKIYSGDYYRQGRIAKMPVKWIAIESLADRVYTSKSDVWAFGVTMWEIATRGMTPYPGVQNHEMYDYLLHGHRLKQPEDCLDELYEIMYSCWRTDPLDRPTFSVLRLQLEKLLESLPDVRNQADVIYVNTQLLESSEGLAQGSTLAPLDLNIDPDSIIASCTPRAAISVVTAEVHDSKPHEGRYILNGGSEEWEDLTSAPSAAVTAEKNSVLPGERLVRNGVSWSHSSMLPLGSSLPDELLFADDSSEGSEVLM

FGFR1 = FGFR1 (UniProt P11362); test: as above
Sequence of FGFR1 (P11362 whole entry, looked up): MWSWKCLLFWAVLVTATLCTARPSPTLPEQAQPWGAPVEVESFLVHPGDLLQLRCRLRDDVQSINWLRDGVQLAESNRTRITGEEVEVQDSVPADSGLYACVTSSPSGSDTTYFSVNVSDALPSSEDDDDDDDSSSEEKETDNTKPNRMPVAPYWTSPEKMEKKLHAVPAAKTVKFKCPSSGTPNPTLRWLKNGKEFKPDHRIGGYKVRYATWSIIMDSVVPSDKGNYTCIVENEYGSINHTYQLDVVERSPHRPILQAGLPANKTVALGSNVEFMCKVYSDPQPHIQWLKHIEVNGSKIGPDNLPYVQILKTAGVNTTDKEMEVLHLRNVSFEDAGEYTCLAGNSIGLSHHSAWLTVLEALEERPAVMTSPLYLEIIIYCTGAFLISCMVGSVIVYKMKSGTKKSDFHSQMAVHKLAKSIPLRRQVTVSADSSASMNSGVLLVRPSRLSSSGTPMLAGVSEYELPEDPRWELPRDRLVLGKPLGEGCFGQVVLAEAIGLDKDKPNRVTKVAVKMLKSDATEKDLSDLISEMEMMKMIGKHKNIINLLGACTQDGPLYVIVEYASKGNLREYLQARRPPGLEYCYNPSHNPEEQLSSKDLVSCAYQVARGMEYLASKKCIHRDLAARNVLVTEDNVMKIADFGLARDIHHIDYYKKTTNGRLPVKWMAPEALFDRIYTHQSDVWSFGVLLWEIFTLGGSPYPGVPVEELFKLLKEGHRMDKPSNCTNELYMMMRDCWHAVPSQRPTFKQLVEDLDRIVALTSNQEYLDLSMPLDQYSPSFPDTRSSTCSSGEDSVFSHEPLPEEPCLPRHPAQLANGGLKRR

EPHB1 = EPHB1 (UniProt P54762); test: as above
c-Src = test: as above
EPHB2 = EPHB2 (UniProt P29323); test: as above
Sequence of EPHB2 (P29323 whole entry, looked up): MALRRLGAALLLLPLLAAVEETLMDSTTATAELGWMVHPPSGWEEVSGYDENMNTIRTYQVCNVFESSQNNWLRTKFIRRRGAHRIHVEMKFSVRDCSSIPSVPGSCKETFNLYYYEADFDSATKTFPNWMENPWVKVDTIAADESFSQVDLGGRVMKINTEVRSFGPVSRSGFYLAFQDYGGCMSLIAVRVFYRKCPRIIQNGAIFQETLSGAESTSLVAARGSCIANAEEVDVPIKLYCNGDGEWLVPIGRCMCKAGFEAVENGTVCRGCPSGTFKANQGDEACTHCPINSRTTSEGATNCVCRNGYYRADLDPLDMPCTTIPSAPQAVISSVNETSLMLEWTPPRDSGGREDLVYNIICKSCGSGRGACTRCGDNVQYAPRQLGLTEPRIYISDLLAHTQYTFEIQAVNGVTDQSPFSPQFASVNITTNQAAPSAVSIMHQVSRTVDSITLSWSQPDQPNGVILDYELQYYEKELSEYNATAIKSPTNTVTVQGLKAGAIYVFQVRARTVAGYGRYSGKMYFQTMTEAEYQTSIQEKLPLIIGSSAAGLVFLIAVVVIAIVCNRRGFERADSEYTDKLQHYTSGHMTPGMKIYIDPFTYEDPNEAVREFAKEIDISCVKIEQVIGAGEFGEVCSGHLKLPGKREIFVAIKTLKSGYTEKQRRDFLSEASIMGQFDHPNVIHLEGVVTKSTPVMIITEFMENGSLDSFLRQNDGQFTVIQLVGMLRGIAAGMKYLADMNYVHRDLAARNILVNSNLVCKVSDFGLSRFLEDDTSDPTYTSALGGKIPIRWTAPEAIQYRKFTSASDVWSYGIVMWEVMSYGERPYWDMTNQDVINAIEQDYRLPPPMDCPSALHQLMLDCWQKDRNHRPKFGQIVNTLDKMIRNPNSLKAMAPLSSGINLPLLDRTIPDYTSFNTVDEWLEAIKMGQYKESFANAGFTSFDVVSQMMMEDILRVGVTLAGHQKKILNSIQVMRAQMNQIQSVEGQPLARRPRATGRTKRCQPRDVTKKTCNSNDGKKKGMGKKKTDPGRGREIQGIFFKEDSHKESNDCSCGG

Fes = Fes (UniProt P07332); test: as above
SHP2-C SH2 = test: SH2 binding enrichment of the phosphorylated peptide, bacterial display (enrichment ratio); higher = better substrate or ligand; peptides without Tyr show the background
Grb2 SH2 = Grb2 SH2 (UniProt P62993); test: as above
Sequence of Grb2 SH2 (P62993 whole entry, looked up): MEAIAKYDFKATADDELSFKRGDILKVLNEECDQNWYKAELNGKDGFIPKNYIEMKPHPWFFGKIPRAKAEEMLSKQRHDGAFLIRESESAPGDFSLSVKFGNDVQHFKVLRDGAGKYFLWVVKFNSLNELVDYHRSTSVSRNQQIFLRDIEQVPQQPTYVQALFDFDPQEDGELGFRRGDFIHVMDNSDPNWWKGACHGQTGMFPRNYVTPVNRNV

c-Src SH2 = test: as above
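Wherever SH2 binding enrichment of the phosphorylated peptide, bacterial display is given: peptide library displayed on the E. coli surface as eCPX fusions, selected cells deep-sequenced, score is each peptide's frequency after selection divided by its frequency in the input.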
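Wherever phosphorylation enrichment, bacterial display is given: 11-residue human phosphosite peptides and single-mutation variants displayed on the E. coli surface, counted by deep sequencing, each peptide's frequency after selection divided by its frequency in the unselected input library; frequency after pTyr selection over input frequency; kinase dosed for 20-30% of maximal phosphorylation in three min.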

Sequence of Hck (P08631 whole entry, looked up): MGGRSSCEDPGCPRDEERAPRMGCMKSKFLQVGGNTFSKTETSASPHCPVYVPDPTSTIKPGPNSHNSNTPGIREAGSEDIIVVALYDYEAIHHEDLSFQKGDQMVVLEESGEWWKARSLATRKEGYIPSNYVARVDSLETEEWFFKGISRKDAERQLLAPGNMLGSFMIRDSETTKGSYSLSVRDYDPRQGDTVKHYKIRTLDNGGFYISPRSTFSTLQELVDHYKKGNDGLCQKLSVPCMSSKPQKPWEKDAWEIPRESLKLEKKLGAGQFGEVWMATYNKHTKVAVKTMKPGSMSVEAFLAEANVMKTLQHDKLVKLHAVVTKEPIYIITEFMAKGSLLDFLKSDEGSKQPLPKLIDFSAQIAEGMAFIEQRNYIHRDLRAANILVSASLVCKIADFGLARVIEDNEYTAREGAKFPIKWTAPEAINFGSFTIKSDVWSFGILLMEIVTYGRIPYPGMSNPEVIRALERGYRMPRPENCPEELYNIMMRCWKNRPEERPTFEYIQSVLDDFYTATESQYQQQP
Sequence of FGFR3 (P22607 whole entry, looked up): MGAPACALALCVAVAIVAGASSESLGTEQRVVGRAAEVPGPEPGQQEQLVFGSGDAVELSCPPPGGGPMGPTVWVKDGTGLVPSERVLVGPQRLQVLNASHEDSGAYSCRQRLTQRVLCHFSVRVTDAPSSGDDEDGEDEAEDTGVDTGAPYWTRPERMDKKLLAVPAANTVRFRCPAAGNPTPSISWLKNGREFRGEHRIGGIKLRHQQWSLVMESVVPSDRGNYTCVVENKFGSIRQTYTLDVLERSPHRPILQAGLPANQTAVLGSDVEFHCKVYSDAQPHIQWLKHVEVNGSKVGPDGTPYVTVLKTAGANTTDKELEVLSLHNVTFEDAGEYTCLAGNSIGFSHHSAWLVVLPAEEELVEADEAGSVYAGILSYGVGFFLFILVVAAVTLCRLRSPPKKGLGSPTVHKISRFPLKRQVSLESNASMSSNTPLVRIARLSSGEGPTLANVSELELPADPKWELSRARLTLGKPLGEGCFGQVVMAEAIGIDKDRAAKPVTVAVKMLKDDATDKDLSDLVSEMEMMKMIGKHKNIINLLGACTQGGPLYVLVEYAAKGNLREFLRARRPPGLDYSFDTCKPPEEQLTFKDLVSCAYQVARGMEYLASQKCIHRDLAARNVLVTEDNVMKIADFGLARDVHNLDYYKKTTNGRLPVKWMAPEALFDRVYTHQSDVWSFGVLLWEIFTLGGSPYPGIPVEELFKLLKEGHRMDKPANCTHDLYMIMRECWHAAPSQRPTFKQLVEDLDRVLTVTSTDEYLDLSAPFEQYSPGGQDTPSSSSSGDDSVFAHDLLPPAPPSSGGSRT

Row | Sequence | phosphorylation enrichment (Hck) | phosphorylation enrichment (AncSZ) | phosphorylation enrichment (c-Abl (mouse)) | phosphorylation enrichment (FGFR3) | phosphorylation enrichment (Fer (mouse)) | phosphorylation enrichment (Fyn) | phosphorylation enrichment (Jak2) | phosphorylation enrichment (MERTK) | phosphorylation enrichment (FGFR1) | phosphorylation enrichment (EPHB1) | phosphorylation enrichment (c-Src) | phosphorylation enrichment (EPHB2) | phosphorylation enrichment (Fes) | SH2 binding enrichment (SHP2-C SH2) | SH2 binding enrichment (Grb2 SH2) | SH2 binding enrichment (c-Src SH2)
1 | FFVVRYCWLRR [MPZ_Y181_YF] | 0.459 | 0.767 | 0.623 | 0.609 | 0.493 | 0.495 | 0.597 | 0.564 | 0.456 | 0.483 | 0.5 | 0.496 | 0.819 | 0.414 | 0.604 | 0.499
2 | LSQDVYEEDSF [RET_Y900_R897Q_YF] | 0.945 | 2.12 | 1.58 | 1.44 | 0.978 | 0.882 | 2.56 | 1.26 | 0.991 | 1.19 | 0.852 | 0.962 | 2.43 | 0.687 | 0.83 | 0.671
3 | ANAFIYDVQLP [L1CAM_Y420_V421D_YF] | 4.65 | 1.1 | 0.715 | 0.627 | 1.19 | 6.97 | 0.849 | 7.43 | 0.639 | 1.69 | 4.96 | 1.3 | 0.938 | 0.633 | 1.01 | 0.51
4 | RSDSSYRMSAT [NHS_Y1532] | 0.775 | 0.764 | 0.679 | 0.754 | 0.541 | 0.747 | 0.598 | 0.68 | 0.717 | 0.592 | 0.585 | 0.673 | 0.757 | 0.809 | 0.844 | 0.476
5 | AVDDKYSRREE [SART1_Y685_I681V] | 0.533 | 0.887 | 0.478 | 0.581 | 0.458 | 0.567 | 0.679 | 0.426 | 0.457 | 0.453 | 0.427 | 0.516 | 0.977 | 0.925 | 1.02 | 0.586
6 | LTMAPYSSVSL [FAM81A_Y24] | 0.495 | 0.628 | 0.511 | 0.488 | 6.06 | 0.536 | 0.518 | 0.556 | 0.498 | 0.412 | 0.897 | 0.45 | 0.618 | 1.82 | 0.691 | 2.72
7 | IMFTSYFLTIL [TAS2R16_Y239_V235M] | 0.623 | 1.34 | 0.955 | 0.922 | 0.579 | 0.622 | 2.38 | 0.476 | 0.732 | 0.755 | 0.578 | 0.555 | 1.52 | 0.963 | 1.04 | 1.03
8 | ETAENYLGYTA [HSPA9_Y181_H184Y] | 0.751 | 1.17 | 0.691 | 0.784 | 0.498 | 0.563 | 0.839 | 0.516 | 0.748 | 0.674 | 0.678 | 0.684 | 1.23 | 0.7 | 0.882 | 0.557
